Experimental data: patent US20140242083A1 (Hoffmann-La Roche, published 2014)

Tests used:
[1] = target: T1, human MCSP (melanoma chondroitin sulfate proteoglycan) on melanoma cells (human, UniProt Q6UVK1 30-2322); assay: FACS titration on A375 melanoma cells, FITC anti-human IgG Fc secondary antibody
T1 construct: Native MCSP on the human melanoma lines Colo38, A2058 and A375; also called surface MCSP; CSPG4
Procedure: (§1) Binding activity was determined by the following method. Target cells were detached from culture flask with cell dissociation buffer, counted and checked for viability. Cells were resuspended and adjusted to 1.111×10⁶ (viable) cells/ml in PBS-0.1% BSA. 180 μl of this suspension were transferred to each well (200,000 cells/well) in a round bottom 96-well-plate, centrifuged for 4 min, at 400 g, and resuspended. 20 μl of antibody dilutions in PBS-0.1% BSA (from 10 μg/ml to […]) were added to each well. The samples were centrifuged for 4 min, at 400 g, and resuspended. Secondary antibody, FITC-conjugated AffiniPure F(ab′)2 fragment goat anti-human IgG Fcg Fragment Specific (Jackson Immuno Research Lab #109-096-098)), was added and the sample centrifuged for 4 min, at 400 g, and resuspended. Fluorescence was measured in flow cytometer (e.g. FACS Canto II). Antibody 9.2.27, described in Morgan A C Jr, Galloway D R, Reisfeld R A. Hybridoma. 1981; 1(1):27-36.; GenBank Accession Numbers: GI:20797193 and GI:20797189 for light and heavy chain respectively, was used as a reference (FIG. 2). Human melanoma cell-lines Colo38, A2058, and A375 were used. Giacomini et al. 1985 (for Colo38). Marquardt H, Todaro G J. J Biol. Chem. 1982 May 10; 257(9):5220-5 (for A2058). Geiser M, Schultz D, Le Cardinal A, Voshol H, Garcia-Echeverria C. Cancer Res. 1999 Feb. 15; 59(4):905-10 (for A375).

[2] = target: T1, human MCSP (melanoma chondroitin …); assay: FACS titration on A2058 melanoma cells, FITC anti-human IgG Fc secondary antibody
Procedure: as §1

[3] = target: T1, human MCSP (melanoma chondroitin …); assay: FACS titration on Colo38 melanoma cells, FITC anti-human IgG Fc secondary antibody
Procedure: as §1

[4] = target: T2, Construct 1 (CSPG repeat 15 of human MCSP with the natural transmembrane domain) (human, UniProt Q6UVK1 2044-2246); assay: FACS titration of LC007 on HEK-EBNA cells transfected with the construct; mock-transfected cells as control
T2 construct: Expressed on HEK-EBNA cells; contains the original transmembrane region; also called MCSP repeat 15 construct
T2 sequence: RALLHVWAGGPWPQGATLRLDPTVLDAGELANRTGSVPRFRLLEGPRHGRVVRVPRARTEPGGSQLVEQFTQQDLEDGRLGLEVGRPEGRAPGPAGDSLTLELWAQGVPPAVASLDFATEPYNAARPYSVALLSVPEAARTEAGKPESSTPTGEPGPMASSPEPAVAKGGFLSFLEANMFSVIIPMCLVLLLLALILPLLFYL

[5] = target: T3, human MCSP D3 domain expression construct (C-terminal part, N-terminal FLAG-tag) in HEK-EBNA cells (human, UniProt Q6UVK1 1582-2224, limits assumed); assay: flow cytometry titration of LC007 on HEK-EBNA cells expressing the construct; untreated EBNA cells as control
T3 construct: 'A similar construct' to the cynomolgus one; it is not clear whether the signal peptide and FLAG-tag are part of it; also called corresponding human expression construct; human counterpart
T3 sequence: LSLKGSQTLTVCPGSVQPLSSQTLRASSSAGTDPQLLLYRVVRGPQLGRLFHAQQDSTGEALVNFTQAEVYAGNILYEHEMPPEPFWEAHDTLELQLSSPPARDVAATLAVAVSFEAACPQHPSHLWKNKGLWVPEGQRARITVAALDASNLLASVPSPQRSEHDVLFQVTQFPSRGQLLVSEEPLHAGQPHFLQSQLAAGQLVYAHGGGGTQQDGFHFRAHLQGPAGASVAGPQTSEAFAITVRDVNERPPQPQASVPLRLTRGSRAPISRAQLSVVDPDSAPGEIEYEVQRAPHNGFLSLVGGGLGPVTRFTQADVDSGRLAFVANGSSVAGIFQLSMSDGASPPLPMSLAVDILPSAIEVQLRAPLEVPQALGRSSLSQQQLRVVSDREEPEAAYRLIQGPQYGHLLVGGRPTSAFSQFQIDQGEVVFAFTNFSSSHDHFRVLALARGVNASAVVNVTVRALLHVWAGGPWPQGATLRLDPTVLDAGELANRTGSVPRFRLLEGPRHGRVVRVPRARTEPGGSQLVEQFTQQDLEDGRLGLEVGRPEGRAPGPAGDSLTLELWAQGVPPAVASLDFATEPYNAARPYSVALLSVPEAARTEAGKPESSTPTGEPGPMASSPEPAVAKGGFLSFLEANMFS

[6] = target: T4, cynomolgus MCSP D3 domain expression construct (C-terminal part, N-terminal FLAG-tag) in HEK-EBNA cells (cynomolgus, UniProt Q6UVK1 1582-2224 (human entry), limits assumed); assay: as above
T4 construct: Tested by flow cytometry on transfected cells; the membrane anchor is not described; also called cynomolgus construct; cynomolgus antigen
T4 chain: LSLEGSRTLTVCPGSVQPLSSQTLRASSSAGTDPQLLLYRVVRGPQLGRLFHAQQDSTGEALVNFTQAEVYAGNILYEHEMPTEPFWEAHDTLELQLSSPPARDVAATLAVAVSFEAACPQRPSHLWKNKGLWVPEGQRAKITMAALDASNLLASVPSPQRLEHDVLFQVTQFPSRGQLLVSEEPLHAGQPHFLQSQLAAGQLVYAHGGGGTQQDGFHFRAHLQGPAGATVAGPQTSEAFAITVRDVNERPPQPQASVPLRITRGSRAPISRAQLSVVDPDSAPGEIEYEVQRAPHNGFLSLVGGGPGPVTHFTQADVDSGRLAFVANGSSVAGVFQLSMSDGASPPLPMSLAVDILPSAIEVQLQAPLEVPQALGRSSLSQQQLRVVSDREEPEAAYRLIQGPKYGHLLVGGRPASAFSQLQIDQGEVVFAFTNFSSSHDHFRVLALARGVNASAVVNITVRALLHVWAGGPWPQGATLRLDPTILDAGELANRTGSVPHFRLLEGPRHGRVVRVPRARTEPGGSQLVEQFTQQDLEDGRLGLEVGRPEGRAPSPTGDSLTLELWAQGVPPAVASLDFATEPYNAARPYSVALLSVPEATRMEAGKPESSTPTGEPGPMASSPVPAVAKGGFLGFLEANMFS

[7] = target: T5, Construct 4 (CSPG repeat 12-15 of human MCSP) (human, UniProt Q6UVK1 1702-2246); assay: FACS titration of LC007 on HEK-EBNA cells transfected with the construct; mock-transfected cells and isotype as controls
T5 construct: Expressed on HEK-EBNA cells; contains the original transmembrane region
T5 sequence: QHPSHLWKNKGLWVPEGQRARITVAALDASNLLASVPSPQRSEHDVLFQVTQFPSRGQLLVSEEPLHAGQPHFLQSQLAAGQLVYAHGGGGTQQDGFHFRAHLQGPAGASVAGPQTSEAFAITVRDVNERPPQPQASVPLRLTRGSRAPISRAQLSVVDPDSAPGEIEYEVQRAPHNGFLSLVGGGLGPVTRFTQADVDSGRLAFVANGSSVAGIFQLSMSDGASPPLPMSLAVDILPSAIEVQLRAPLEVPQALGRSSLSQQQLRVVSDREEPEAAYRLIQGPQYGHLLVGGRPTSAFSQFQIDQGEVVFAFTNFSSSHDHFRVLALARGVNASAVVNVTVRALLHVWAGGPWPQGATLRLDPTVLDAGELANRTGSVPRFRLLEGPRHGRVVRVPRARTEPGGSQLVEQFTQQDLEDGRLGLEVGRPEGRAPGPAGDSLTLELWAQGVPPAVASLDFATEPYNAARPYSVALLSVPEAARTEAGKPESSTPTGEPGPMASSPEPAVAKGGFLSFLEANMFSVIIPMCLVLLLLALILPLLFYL

T1 sequence (Q6UVK1 30-2322 limits assumed): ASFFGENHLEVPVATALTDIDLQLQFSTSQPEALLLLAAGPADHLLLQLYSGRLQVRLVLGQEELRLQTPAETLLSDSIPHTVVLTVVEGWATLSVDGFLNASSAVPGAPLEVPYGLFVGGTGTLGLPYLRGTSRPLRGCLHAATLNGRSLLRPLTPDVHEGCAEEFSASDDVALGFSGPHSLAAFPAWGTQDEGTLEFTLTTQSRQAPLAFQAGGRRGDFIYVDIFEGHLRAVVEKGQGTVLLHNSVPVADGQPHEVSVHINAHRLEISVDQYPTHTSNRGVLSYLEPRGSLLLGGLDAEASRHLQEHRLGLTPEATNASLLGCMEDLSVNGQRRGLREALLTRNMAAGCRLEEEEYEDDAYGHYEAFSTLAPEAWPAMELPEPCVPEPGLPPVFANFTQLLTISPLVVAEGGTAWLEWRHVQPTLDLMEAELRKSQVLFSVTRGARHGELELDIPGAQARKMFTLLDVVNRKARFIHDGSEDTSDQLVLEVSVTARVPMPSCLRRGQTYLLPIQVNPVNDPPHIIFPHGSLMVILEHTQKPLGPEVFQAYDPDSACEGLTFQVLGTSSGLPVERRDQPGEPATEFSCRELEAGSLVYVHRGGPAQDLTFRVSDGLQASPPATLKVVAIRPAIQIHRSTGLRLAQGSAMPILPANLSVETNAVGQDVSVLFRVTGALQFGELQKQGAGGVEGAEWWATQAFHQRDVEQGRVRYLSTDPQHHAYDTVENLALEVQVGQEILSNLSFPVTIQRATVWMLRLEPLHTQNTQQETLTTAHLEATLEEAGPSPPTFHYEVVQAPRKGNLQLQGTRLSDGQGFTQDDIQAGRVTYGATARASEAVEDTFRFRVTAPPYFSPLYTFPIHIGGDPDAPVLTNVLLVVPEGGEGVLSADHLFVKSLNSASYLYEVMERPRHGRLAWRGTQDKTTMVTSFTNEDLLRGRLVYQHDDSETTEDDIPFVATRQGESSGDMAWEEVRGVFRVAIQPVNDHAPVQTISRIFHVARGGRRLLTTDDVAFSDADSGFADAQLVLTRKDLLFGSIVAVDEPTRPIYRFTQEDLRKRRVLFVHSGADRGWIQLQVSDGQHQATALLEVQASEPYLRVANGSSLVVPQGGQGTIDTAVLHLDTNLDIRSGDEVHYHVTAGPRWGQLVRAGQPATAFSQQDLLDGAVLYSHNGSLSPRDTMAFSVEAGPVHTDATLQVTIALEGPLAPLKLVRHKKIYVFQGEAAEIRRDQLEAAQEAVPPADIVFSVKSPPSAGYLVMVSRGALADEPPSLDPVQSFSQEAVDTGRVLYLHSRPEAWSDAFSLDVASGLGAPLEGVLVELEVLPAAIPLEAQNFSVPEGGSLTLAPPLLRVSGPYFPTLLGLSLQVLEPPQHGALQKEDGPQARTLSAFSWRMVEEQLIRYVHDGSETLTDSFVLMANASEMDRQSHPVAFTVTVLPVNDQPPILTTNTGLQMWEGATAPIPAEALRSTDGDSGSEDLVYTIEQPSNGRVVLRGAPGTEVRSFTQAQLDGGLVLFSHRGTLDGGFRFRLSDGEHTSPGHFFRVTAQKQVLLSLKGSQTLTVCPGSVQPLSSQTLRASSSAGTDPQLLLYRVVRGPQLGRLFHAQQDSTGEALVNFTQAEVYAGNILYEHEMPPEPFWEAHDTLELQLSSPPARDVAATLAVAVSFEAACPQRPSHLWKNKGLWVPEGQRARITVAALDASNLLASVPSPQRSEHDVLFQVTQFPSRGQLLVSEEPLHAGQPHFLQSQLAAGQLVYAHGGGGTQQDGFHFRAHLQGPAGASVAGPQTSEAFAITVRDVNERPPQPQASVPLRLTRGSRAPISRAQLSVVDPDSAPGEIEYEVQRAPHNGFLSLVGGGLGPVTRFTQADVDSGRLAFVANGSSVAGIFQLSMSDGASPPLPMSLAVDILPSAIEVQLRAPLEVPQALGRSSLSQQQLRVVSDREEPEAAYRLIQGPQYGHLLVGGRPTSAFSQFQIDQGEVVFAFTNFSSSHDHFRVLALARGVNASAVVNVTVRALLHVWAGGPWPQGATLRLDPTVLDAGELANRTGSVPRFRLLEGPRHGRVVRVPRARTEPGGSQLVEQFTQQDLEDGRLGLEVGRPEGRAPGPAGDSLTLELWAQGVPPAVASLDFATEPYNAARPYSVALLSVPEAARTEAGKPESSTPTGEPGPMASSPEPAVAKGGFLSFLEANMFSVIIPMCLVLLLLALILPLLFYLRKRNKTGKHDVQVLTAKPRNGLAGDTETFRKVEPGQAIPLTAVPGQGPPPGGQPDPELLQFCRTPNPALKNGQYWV

B1: chimeric antibody LC007 (antibody, human IgG1, kappa, V domains shown)
VH: EVQLQESGPGLVKPSQSLSLTCSVTGYSITSGYYWNWIRQFPGNKLEWMGYITYDGSNNYNPSLKNRISITRDTSKNQFFLKLNSVTTEDTATYYCADFDYWGQGTTLTVSS
VL: DIVLTQSPSSLSASLGDRVTISCSASQGIRNYLNWYQQRPDGTVKLLIYYTSSLHSGVPSRFSGSGSGTDYSLTISNLEPEDIATYYCQQYSKLPWTFGGGTKLEIKR
notes: all such entries are written under the chimeric antibody; also called LC007 antibody; LC007 wt
EC50 (read off the curve) [1]: ~0.05 µg/mL | EC50 (read off the curve) [2]: ~0.03 µg/mL | EC50 (read off the curve) [3]: ~0.05 µg/mL | binding result [4]: no binding (tested: 5 ug/ml) | EC50 (read off the curve) [5]: ~0.08 µg/mL | EC50 (read off the curve) [6]: ~0.1 µg/mL | EC50 (read off the curve) [7]: ~0.3 µg/mL
